We go through 30 sequences from the nanobody polyreactivity screen of Harvey et al. (2022).

A short description of the series: yeast display, Sf9 membrane polyspecificity reagent, FACS + sequencing; frameworks hold sequencing errors. The essentials: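 A nanobody's polyreactivity label depends on the gate it was sorted from. Yeast display cells were stained with 10% biotinylated, detergent-solubilized Sf9 membrane reagent for 1 hour at 4 °C, enriched on streptavidin microbeads and sorted by FACS. The low and high (top ~1%) gates were set on anti-HA fluorescence for expression and streptavidin fluorescence for reagent binding.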
Regarding “QDQLVESGGGLVQAGGSLRLICAASGITFFGYVMGWYRQAPGKERELVAAINSRGGNTYYADSVKGRFTSSRDNAKNTVYLQMNSLKPEDTAVYYCAASNGYQAVTYDYWGQGTQVTVSS”, the “polyreactivity (PSR sort gate)” value is reported as “high polyreactivity”.

Take “QVQHVESGGGLVQAGGSLRLSCAASGSIFKPYAMGWYRLAPGKEREFVAAITSSDGTTYYADSVKGRFTISRDNAKNTVYVQMNSLKPEDTAVYYCNAEYYAKYVPFTKYYYWGQGTQVTVSS”: the “polyreactivity (PSR sort gate)” value was “low polyreactivity”.

For the sequence “QVQLVESGGGLVQAGGSLRLSCAASGSTFGPYAMGWYRQAPGKERELVAAIRSDGGTYYADSVTGRFTISRDNAKNTVYLQMNSLKPEDTAVYYCNAVPVGWRYRQYDYWGQGPQVTVSS”, the “polyreactivity (PSR sort gate)” value is “high polyreactivity”. Turning to “QVQLVESGGGLVQAAASLRLSCAAYGITFNSYVMGWSRQAPGKERELVAVISRGGGITYYADSVKGRFTISRDNAKNTVYLQMNSLKPEDTAVYYCAADHTHVYVLYYNDNYWGQGTQVTVSS”, the “polyreactivity (PSR sort gate)” value was “high polyreactivity”.

For the sequence “QVQLVESGGGLVQAGGSLRLSCAASGFIFFDNAMGWYRHAPGKETELVAVISSSGTSTYYADSVKGRFTISRDNAKNTVYLQMNSLKPEDTAVYYCNATARTGVYLESDYWGQGTQVTVSS”, the “polyreactivity (PSR sort gate)” value is reported as “low polyreactivity”. For the sequence “QVQLVESGGGLVQAGGSLRLSCAASGFIFSKYAMGWYRQAPGKERELVAAITSGGSTYYADSVKGRFTISRDNAKNTVYLQMNSLKPEDTAVYYCAADSYVPNLNYDYWGQGTQVNVSS”, the “polyreactivity (PSR sort gate)” value is reported as “low polyreactivity”.

Turning to “QVQLVESGGGLVQAGGSLRLSCAASGSTSWRNTMGWYRQAPGKERELVAAIRNVGSTYYADSVKGLFTISRDNAKNTVYLQMNSLKPEDTAVYYCNARWRFLYDYWGQGTQVTVSS”, the “polyreactivity (PSR sort gate)” value is given as “high polyreactivity”. To “QVQHVESGGGLVQAGLSLRLSCAASGRIFYGYAMGWYRQGPGQEREFVAAITSGGRTYYADSVKGRFTISRDNAKTTVYLQLNSLKPEDTAVYYCAAAQYYRYGYWGQGTQVTVSS” belongs “high polyreactivity”.

For the sequence “QVQLVESGGGLVQAGGSLRLSCAASGSTFGFNVMGWYRPAPGKERELVAAIRYRDGSTYYADSVKGRFTISRDNAKNTVYLQMNSLKPEDTAVYYCNTRITQVGDYIYDYWGQGTQVTVSS”, the “polyreactivity (PSR sort gate)” value is recorded as “low polyreactivity”.

In the case of “QVQLQERGGGLMQAGGSQRLSCAASGSISYYSDMGWYRQAPGTEREFVAGIGYGTTTNYADSVKGRFTTSRDNAKNTVDLQMISMKPEDTAVYYCAAYQGNGYEFYYWGQGTQVTVRS”, the “polyreactivity (PSR sort gate)” value is given as “low polyreactivity”. As to “QVQLVESGGGLVQAGGSLRLSCAASGRTFYWNAMGWYRQAPGKERELVAGISRGGGITYYADSVKGRFTISRDNAKYTVYLQMNSLKPEDTAVYYCNSRAGRQLARYGYWGQGTQVTVSS”, the “polyreactivity (PSR sort gate)” value is listed as “high polyreactivity”. To “QVQLVESGGGLVQAGGSLRLSCAASGSTFIYYTMVWYRQAPGKERELVAAIPSSGGSTYYADSVKGRFTISRDNAKNTVYLQMNSLKPEDNAVYYCAADGTYIKFAKLYRSYDYWGQVTQVTVSS” belongs “low polyreactivity”. Then “QVHLVESGGGLVQAGGSLRLSCAASGSLFYYNAMGWYRPAPGKERDLVAAINSNGGSTYYADTVKGRFTISRDNAKNTVYLQMNSLKPEDTAVYSSAAKYYFNWHRQGYDYWGQGTQVTVSS”, with “high polyreactivity”. To “QVQLVESGGGLVQAGGSLRLSCAASGSTFPYPYTMGWYREAPGKERELVAVISRTGGSTFYADSVKRRFTISRDNAKNTVYLQMNSLKPEDTAVYYCAARRDGWTFWKYDYWGQGTQVTVSS” belongs “high polyreactivity”; to “QVQLVESGGVLVQAGGSLRLSCAASGRTFSPYAMGWARQAPGKDRELVAAITSRGASTYYADSVKGRFTISRDNAKNTVYLQMNSLKPEDTAVYYCNSGRTYRRLGDYWGQGTQVTVSS”, “high polyreactivity”; to “QVQLVESGGGLVQAGGSLRLTCAASGRILVSYSMGWYRQAPGKERELVAAISRSGGSTYYADSVKGRFTISRDNAKNTVYLQMNSLKPEDTAVYYWNVYRFSRYDYWGQGTQVTVSS”, “high polyreactivity”. Consider “QVQLVESGGGLVQAGGSLRLSCAASGRTFGRYAMGWYRQAPGKERELVAAITWSGGSTYYADSVKGRFTISRDYAKNTVYLQMNSLKPEDTAVYYCAAARVYFGDLFVVYYFIQYDYWGQGTQVTVSS”, for which the “polyreactivity (PSR sort gate)” value is reported as “low polyreactivity”. Then “QVQLVESGGGLVQAGGSLRLSCAASGFTFQTYAMGWYRQAPGKERELVATINSSGGGTYYADSVKGRFTISRDNAKNTVYLQMNSLKPEDTAVYYCAADAVWFVGQAFDISDSTTYGYWGQGTQVTVSS”, with “low polyreactivity”; and “QDHLVESGGGLVQAGGSLRLSCAASGSIFGLYAMGWYRQSPGKERELVAAISFSGDTYYADSVKGRFTISRDNAKNTVYLQMNSLKPEDTAVYYCAAEDWYEYDYWGQGTQVTVSS”, with “high polyreactivity”. As for “QVHLVESGGGLVQAGGSLRLSCAASGYIFHVYAMGWYRQAPGKERELVAAITSSGGSKYYADSVKGRFTISRDNAKNTVYLQMNCLKPEDTAVYYCAARTRYISGRQTGYDYWGQGTQVTVSS”, the “polyreactivity (PSR sort gate)” value was “high polyreactivity”. Then “QDQLVESGGGLVQAGGSLSLSCAASGSIIPNYAMGWYRQAPGKERELVAAISSSGGRTYYADSVKGRFTISRDNAKNTVYLQMNCLKPEDTAVYYCAADTYTSAQHEKYDYWGQGTQVTVSS”, with “low polyreactivity”; and “KVQLVETGGGLVQAGGSLRLSCAASGRTFWGYAKGWYRQAPGKEREFVAAISCGGRTNYADSVKGRFTISRDNAKNTVYLQLNSLKPEDSAVYYCATVSGYGYYYWGQGTQVTVSS”, with “low polyreactivity”.

Turning to “QDQLVESGGGLVQAGGSLRLSCAASGFIFENYTLGWYRLAPGKERELVAAITSSGGSTYYADSVKGRFTISRDNAKNTVYLPLNSLNPDVTAVYYCNKRWFRDYDYWGQGTQVTVSS”, the “polyreactivity (PSR sort gate)” value is reported as “high polyreactivity”. “QVQLVESGGGLVQAGGSLRLSCAASGRTFHGYGMGWYRQAPGKERELVAAISWSGGSTYYADSVKGRFTISRDNAKNTVYLHMNSLKAEDTAVYYCAADVYRYWISEYDDYWGQGTQVTVSS”: the “polyreactivity (PSR sort gate)” value is on record as “low polyreactivity”. To “QVQLVESGGGLFQAGGSHRLSCAASGSTFYYKAMGWYRQAPGKESELVARISRSGGSTYADSVKGRFTISRDNAKNNVYLQMNSLKPEDTAVYYCNKRGFYTPSVSYDYWGQGTQVTVSS” belongs “low polyreactivity”; to “QVQLVESGGGLVQAGGSLRLSCAASGRTIRGYTMGWYRQSAGTERELVATITKRGGSTTYADSVKGRFTISRDNAKNTVYLQMNSLKPEDTAVYYCNKDTITSTLTPYTSWFGYWGQGTQVTVSS”, “high polyreactivity”. Consider “QVQLVESGGGLVQAGGSLRLSCAASGRIFFTYAMGWYRQAPGKERELVASITGSGGSTYYADSVKGRFTISRDNAKNTVYLQMNSLKPEDTAVYYCAAALFRRQLYRKFYYWGQGTQVTVSS”, for which the “polyreactivity (PSR sort gate)” value was “low polyreactivity”. Then “QVQLVDSGGGLVQAGGSISLSCAASGRTFFVNAMGWYRQAPGKERELVAAITRRGGITYYADSVKGRFTISRDNAKNTVYLQMNSLKPEDTAVYYCAADRSYYPDTRTTYGYNYWGQGTQVTVSS”, with “low polyreactivity”; and “QVQLVESGGGLVQAGGSLRLSCAASGITFEPYAMGWYRQAPGKEREFVADITWSGGSTYYADSVKGRFTISRDNAMNTGYLQMNSLKPEDTAVYYCAADGWTSYWSDYWGQGTQVTVSS”, with “low polyreactivity”. To “QVQLVESGGRLVQAGGSLRLSCAASGFIFRYNAMGWYRQAPGKERELVARITSSGGTTYYADSVKGRFTISRDSSKNTVYLQMNSLKPEDTAVYYCNARKVRYPYGWYDYWGQGTQVTVSS” belongs “high polyreactivity”.
